B1: TCN-555 (5246_L16) (antibody, V domains shown)
VH: QVQLVQSGAEVKRPGSSVKVSCTASGGIFRKNAISWVRQAPGQGLEWMGGIIAVFNTANYAQKFQNRVKITADESGNTAYMELSSLTSDDTAVYYCASHPKYFYGSGSYPDFWGQGTLVTVSS
VL: QSALTQPRSVSGSPGQSITISCTGGSSDIGASNSVSWYQQHPGKAPKLVIFDVTERPSGVPHRFSGSKSGNTASLTVSGLQPDDEADYFCCAYGGKYLVVFGGGTKVTVL
B2: TCN-560 (5084_P10) (antibody, V domains shown)
VH: EVQLVESGGGLVQPGGSLRLSCAASGFIFRNYWMSWVRQAPGKGLEWVANIKQDGREKYYVDSLRGRVNISRDNAENSLYLHMNSLRVEDTAVYFCARARMVVVTGDGFDVWGHGTMVTVSS
VL: DIQMTQSPSSLSASVGDRVTITCRASQNIKRYFNWYQQKPGKAPKLLIYAASNLENGVPSRFSGSGSGTDFTLTISSLQPEDFATYYCQQSFSKSWTFGQGTNVDIK
B3: TCN-538 (3206_O17) (antibody, V domains shown)
VH: QITLKESGPTLVKPTQTLTLTCVFSGFSLSITGVRVGWIRQPPGKALEWLALISWDDEKHYSPSLQSRLTITKDTSKNQVVLTMTNLDPVDTATYYCARSTDRGHVLRYFGWMLPGDAFDVWGQGTMVTVSS
VL: DIVMTQSPDFLPVSLGERATINCKSSQRVLYSSNNKNYLAWYQLKPGQPPKLIIYWASTRESGVPDRFSGSGSGTEFTLTISSLQAEDVAVYYCQQYYSRPYTFGQGTKLEIK
B4: TCN-543 (5081_G23) (antibody, V domains shown)
VH: QVHLVQSGAEVRKPGDSVKVSCKTSGYTFSTYPVAWVRQVPGQGLEWMGWISTYNGNTNFAQNFQGRVTLTTDTTTNTAYMEVRSLKFDDTAVYYCARVEGSYRDFWNNQNRFDPWGQGTLVTVSS
VL: SYVLTQPPSVSVAPGQTARISCGGSNIGGKSVHWYQQKPGQAPVLVVYDDSGRPSGIPERFSGSNSGDTATLTISRVEAGDEADYFCQVWDNFGGVFGTGTKVTVL
B5: TCN-534 (5249_B02) (antibody, V domains shown)
VH: QVQLVQSGAEVKKPGSSVKVSCRESGGTFNGYTITWVRQAPGQGLEWMGGIIPMMGTVNYAQKLQGRVTITTDYFTKTAYMDLNNLRSEDTAMYYCVKIRYTGQQLLWGQGTLVTVSS
VL: DIQMTQSPSTLSASIGDRVTITCRASQSIASWLAWYQQKPGKAPKLLIYEAVNLESGVPSRFSGSGSGTDFTLTISSLQPDDFATYFCQHYGTISQTFGGGTKVEIK
B6: TCN-540 (5060_F05) (antibody, V domains shown)
VH: QVQLVQSGGGVVQPGRSLRLSCAASGFTFSSYAMHWVRQAPGKGLEWVAIISYDGNDQYYTDSVKGRFTISRDSSKVYLQMHRLRPEDTAVYYCAKEFETSGYFHGSFDYWGQGILVTVSS
VL: QSALTQPASVSGSPGQSITISCTGTSSDVGGYNYVSWYQQHPGKAPKLLIYEVTNWPSGVSNRFSGSKSGNTASLTISGLQAEDEADYYCSSYAGSSTWVFGGGTRVTVL
B7: TCN-552 (5249_I23) (antibody, V domains shown)
VH: QVQVVQSGAEVKKPGSSVRVSCQASGGTFMNYAIIWVRRAPGQGLEWMGGIIPVFPTPNYAQMFQGRVTISTDESRSTSFLELTNLRYEDTAVYYCARRIYHGGNSGFDFWGQGTLVTVSS
VL: EIVLTQSPATLSLSPGERATLSCRASQSVGNYLAWYQQKPGQAPRLLIYDSSNRAPGIPARFSGSGSGTDFTLTISSLAPEDFAVYYCQQRSKWPPMYSFGHGTKLEIK
B8: TCN-537 (3194_D21) (antibody, V domains shown)
VH: QVQLQQWGSGLLKPSETLSLTCAVYGGSFRDDYWTWIRQPPGKGLEWIGEINHSGRTNYNPSLKSRVTISVDTSLKQFSLKVISVTAADTAVYYCARGTSHVSRYFDWLPPTNWFDPWGQGTQVTVSS
VL: DIVLTQSPGTLSLSPGERATLSCRASQSVSSSYLAWYQQKPGQAPRLVMYGAATRATGIPDRFSGSGSGPDFTLTISRLEPEDFAMYYCQQYGNSPITFGQGTRLEIK
B9: TCN-551 (5243_D01) (antibody, V domains shown)
VH: EVQLVQSGSEVKKPGESLKISCKGSGYSFSNYWIGWVRHMPGKGLEWMGIIYPGDSDTRYSPSFQGQVTMSADKSSSTVYLQWSSLKASDTAIYYCARRGGHSFGYGSGGDTHSEFDSWGQGTLVTVSS
VL: QSVLTQSPSVSAAPGQKVTISCSGSDSNIGDYFVCWYQHLPGKPPQLLIYENNKRPSGIPDRFSGSKSGTSATLGITGIQTGDEADYYCATWDGSLSAWVFGGGTKLTVL
B10: TCN-536 (5095_N01) (antibody, V domains shown)
VH: QVQLQQWGAGLLKPSETLSLTCAVYGGSFSVSGYYWSWIRQPPGRGLEWIGEISHGGSTNYNPSLKSRVTISVDTTKNQFSLRLSSVTAADTAVYYCARGTDPDTEVYCRVGNCAAFDYWGQGSLVTVSS
VL: EIILAQSPGTLSLSPGERATLSCRASQFVSTRSLAWYQQRPGQAPRLLIYGASSRATGIPDRFSGSGSGTDFTLTISRLEPEDFAVYYCQHYGYSPRYAFGQGSKVEIK
B11: TCN-545 (5082_I15) (antibody, V domains shown)
VH: QVQLQQWGAGLLKPSETLSLSCAVFGGSFSDYYWTWIRQPPGKGLEWIGEIKHSGRTNYNPSLESRVTISVDTSKNQFSLKLSSVTAADTAIYYCARGTDPDTEGYCRSGSCSAFDFWGQGTLVTVSS
VL: EIVLTQSPGTLSLSPGERATLSCRASHFVNYRSLAWYQQTPGQVPRLLIYGASTRATGIPDRFSGSGSGTDFTLTISRLEPEDFAVYFCQQYGGSPRYTFGQGTRLEIK
B12: TCN-539 (5056_A08) (antibody, V domains shown)
VH: QVQLVESGGGVVQPGRSLRLSCAASEITFITYAMHWVRQAPGKGLEWVALISDDGSNKFYADSVKGRFTISRDNSKNTLYLQMNSLRAEDTAAYYCAREGVYFDSGTYRGYFDYWGQETLVTVSS
VL: EIVLTQSPATLSLSPGERATLSCRASQSVSSYLAWYQQKPGQAPRLLIYDASNRATGIPARFSGSGSGTDFTLTISSLEPEDFAVYYCQQRSHWPPITFGQGTRLEIK
B13: TCN-550 (5096_F06) (antibody, V domains shown)
VH: QVQLQESGPGLVKPSETLSLTCTVSGASINSHYWSWIRQPPGKGLEWIGYVYYSGSTTYNPSLKSRVTLSVDTSKNQFSLNLSSVTAADTAFYYCARHPYDVLTGSGDWFDPWGQGTLVTVSS
VL: SYVLTQAPSVSVAPGQTARITCGGNAIGSKKVHWYQHKAGQAPVLVVYDDTDRPSGIPERFSGSNSWSTATLTINRVEAGDEADYYCQVWDFTIDHVVFGGGTKLTVL
B14: TCN-554 (5277_M05) (antibody, V domains shown)
VH: QVQLVQSGADLKKPGASVKVSCKASGYTFTDYYIHWVRQAPGQGLEWMGWINPESGDTKYAQKFQGRVTMTRDTSITTAYMELGRLRSDDTAVYYCARDVSTTWSWFAPWGQGTLVTVSS
VL: DIVMTQSPDSLAVSLGERATINCRSSQSIFHNSNNENYLAWYQQKPGQPPKLLIYWASTRESGVPDRFSGSGSGTDFTLTISSLQAEDVAVYFCQQYYNAPLTFGGGTKVEIK
B15: TCN-544 (5082_A19) (antibody, V domains shown)
VH: QVQLQESGPGLVKPSETLSLTCTVSRGSIGHYFWSWIRQPPGKGLEWIGYISYSGSTKYNPSLRSRVTISVDTSKNQFSLNLNSVTATDTALYYCAREDYDILTGAGPGMEVWGQGTTVTVSS
VL: QSMLTQPPSASGTPGQRVTISCSGSSSNIGSNTVNWFKHLPGTAPKLLIYRNDLRPSGVPDRFSGSKSGTSASLAISGLQSEDEADYYCATWDDSLNGFYVFGTGTKVTVL

Target: T1, hemagglutinin (HA) of influenza A/Solomon Islands/3/06 H1N1 (Influenza A virus A/Solomon …)
Assay: cell-based or functional assay

In order of falling “% Neutralization” value:
1. B2  94%
2. B1  48%

Target: hemagglutinin (HA) on live influenza A virus A/Solomon Islands/3/06 H1N1 (Influenza A virus A/Solomon …)
Assay: cell-based or functional assay

In order of falling “% Neutralization” value:
1. B9  99%
2. B4  98%
3. B11  88%
4. B10  81.6%
5. B5  65.7%
6. B3  21%
7. B6  3%
8. B7  0%
9. B8  0%

Target: hemagglutinin (HA) on live influenza A virus A/Wisconsin/67/05 H3N2 (Influenza A virus A/Wisconsin/67/2005 …)
Assay: cell-based or functional assay

In order of rising “% Neutralization” value:
1. B3  0%
2. B5  0%
3. B8  0%
4. B9  6%
5. B7  14%
6. B4  73%
7. B15  97%
8. B6  98%
9. B12  99%
10. B11  99%
11. B10  99.9%
12. B13  100%
13. B14  100%

Target: T1, hemagglutinin (HA) of influenza …
Assay: ELISA, inactivated whole virions coated; transfection supernatant set 5

In order of falling OD450:
1. B1  3.57 OD450
2. B2  3.52 OD450

Target: hemagglutinin (HA) of influenza A/Japan/305/57 H2N2 (Influenza A virus A/Japan/305/1957 …, UniProt P03451 16-562)
Assay: as above

In order of falling OD450:
1. B2  3.55 OD450
2. B1  2.1 OD450
